{
  "source": "paper PMC12678787",
  "about": "“Insects evolved a monomeric histone-fold domain in the CENP-T protein family”",
  "binders": {"B1": {"name": "12 bp DNA (AA357/AA358) (dsDNA)", "DNA 1": "TAGACAGCTCTA", "DNA 2": "TAGAGCTGTCTA"}},
  "key": {"bmCENP-T patch 2 mutant": {"molecular_target": "T1, bmCENP-T patch 2 mutant (Bombyx mori, UniProt A0A8R2HRP3 894-1016, R928S;R963S)", "T1 sequence": "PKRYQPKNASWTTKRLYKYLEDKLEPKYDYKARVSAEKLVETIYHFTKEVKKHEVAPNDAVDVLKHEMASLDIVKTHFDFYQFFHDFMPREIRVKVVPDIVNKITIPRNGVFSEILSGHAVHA", "assay": "EMSA; 100 mM NaCl; no effect of mutation; EMSA: 100 mM NaCl, 4 °C 30 min, 300 ng DNA, 8% glycerol, 5% native PAGE, GelRed stain; protein stock in 10 mM HEPES pH 7.5, 500 mM NaCl; binding buffer and pH not stated", "conditions": "protein: recombinant; tags: GST tag cleaved with HRV 3C; blunt"}, "bmCENP-T HFD WT": {"molecular_target": "T2, bmCENP-T HFD WT (Bombyx mori, UniProt A0A8R2HRP3 894-1016)", "T2 sequence": "T1 sequence with S35R, S70R", "assay": "EMSA; 100 mM NaCl; maximum complex at 5x molar excess of protein; EMSA: 100 mM NaCl, 4 °C 30 min, 300 ng DNA, 8% glycerol, 5% native PAGE, GelRed stain; protein stock in 10 mM HEPES pH 7.5, 500 mM NaCl; binding buffer and pH not stated", "conditions": "protein: recombinant; tags: GST tag cleaved with HRV 3C (vector-derived N-terminal residues may remain); blunt"}, "bmCENP-T patch 1 mutant": {"molecular_target": "T3, bmCENP-T patch 1 mutant (Bombyx mori, UniProt A0A8R2HRP3 894-1016, K895A;R896A;K907A;R908S;K911A)", "T3 sequence": "T1 sequence with K2A, R3A, K14A, R15S, K18A, S35R, S70R", "assay": "EMSA; 100 mM NaCl; EMSA: 100 mM NaCl, 4 °C 30 min, 300 ng DNA, 8% glycerol, 5% native PAGE, GelRed stain; protein stock in 10 mM HEPES pH 7.5, 500 mM NaCl; binding buffer and pH not stated", "conditions": "protein: recombinant; tags: GST tag cleaved with HRV 3C; blunt"}},
  "note": "Changes are numbered by the printed parent chain.",
  "data": [
    {"binder": "B1", "values": [
      {"measurement": "binding result", "setting": "bmCENP-T patch 2 mutant", "value": "binds"},
      {"measurement": "binding result", "setting": "bmCENP-T HFD WT", "value": "binds"},
      {"measurement": "binding result", "setting": "bmCENP-T patch 1 mutant", "value": "no binding"}
    ]}
  ]
}
